Laboratory results: patent US10941182 (Amgen, dated 2021)
Starred links: 1 amine or outer side, 2 acyl side, 3 side chain; linkers in the order of their positions; H or OH if unused. Non-standard residues stand in square brackets, D forms with d. *: point of attachment. C18 diacid = O=C(O)CCCCCCCCCCCCCCCCC(=O)*; dBip = N[C@H](Cc1ccc(-c2ccccc2)cc1)C(=O)O; Oic = O=C(O)[C@@H]1C[C@@H]2CCCC[C@@H]2N1; Phe(4-Cl) = N[C@@H](Cc1ccc(Cl)cc1)C(=O)O; dPhe(4-Cl) = N[C@H](Cc1ccc(Cl)cc1)C(=O)O; Heptadecanoyl = CCCCCCCCCCCCCCCCC(=O)*; Phe(4-I) = N[C@@H](Cc1ccc(I)cc1)C(=O)O; γGlu = O=C(O)[C@H](CCC(=O)[*:2])N[*:1]; 2Nal = N[C@@H](Cc1ccc2ccccc2c1)C(=O)O; Pentadecanoyl = CCCCCCCCCCCCCCC(=O)*; NMeR = CN[C@@H](CCCNC(=N)N)C(=O)O; Tridecanoyl = CCCCCCCCCCCCC(=O)*; hArg = N=C(N)NCCCC[C@H](N)C(=O)O; dTic = O=C(O)[C@H]1Cc2ccccc2CN1; Cha = N[C@@H](CC1CCCCC1)C(=O)O; NMeL = CN[C@@H](CC(C)C)C(=O)O; Nle = CCCC[C@H](N)C(=O)O; Orn = NCCC[C@H](N)C(=O)O; AEEA = NCCOCCOCC(=O)O; Aib = CC(C)(N)C(=O)O

T1: rat APJ receptor (rat, UniProt Q9JHG3 1-377)
T1 sequence (looked up): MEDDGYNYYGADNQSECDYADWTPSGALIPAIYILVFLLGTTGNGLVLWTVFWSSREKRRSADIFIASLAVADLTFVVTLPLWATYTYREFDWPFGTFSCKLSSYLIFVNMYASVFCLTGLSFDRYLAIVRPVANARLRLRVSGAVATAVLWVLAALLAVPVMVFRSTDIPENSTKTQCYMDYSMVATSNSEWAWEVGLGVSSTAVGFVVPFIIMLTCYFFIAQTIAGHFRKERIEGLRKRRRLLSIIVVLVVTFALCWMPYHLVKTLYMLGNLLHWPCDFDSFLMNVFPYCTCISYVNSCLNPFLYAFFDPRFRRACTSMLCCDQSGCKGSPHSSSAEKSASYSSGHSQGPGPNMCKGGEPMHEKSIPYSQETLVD

T2: human APJ receptor (human, UniProt P35414 1-380)
T2 sequence (looked up): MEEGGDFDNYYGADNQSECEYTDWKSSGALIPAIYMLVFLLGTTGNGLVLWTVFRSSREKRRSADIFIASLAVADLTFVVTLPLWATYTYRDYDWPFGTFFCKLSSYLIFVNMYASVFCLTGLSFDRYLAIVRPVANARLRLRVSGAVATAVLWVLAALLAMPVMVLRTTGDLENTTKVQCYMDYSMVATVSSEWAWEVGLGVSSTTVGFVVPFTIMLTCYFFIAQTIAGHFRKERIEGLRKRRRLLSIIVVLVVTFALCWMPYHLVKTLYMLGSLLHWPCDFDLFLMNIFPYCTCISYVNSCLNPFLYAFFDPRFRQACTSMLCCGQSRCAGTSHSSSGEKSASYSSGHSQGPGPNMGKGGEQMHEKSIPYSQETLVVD

B1: apelin polypeptide SEQ ID NO: 264 (peptide)
peptide: {C18 diacid}-[γGlu][AEEA][AEEA][hArg][dR]Q[hArg]P[dR][NMeL]SHKG[Oic][Phe(4-I)]P[dBip]-OH
SMILES: CC(C)C[C@@H](C(=O)N[C@@H](CO)C(=O)N[C@@H](Cc1c[nH]cn1)C(=O)N[C@@H](CCCCN)C(=O)NCC(=O)N1[C@H](C(=O)N[C@@H](Cc2ccc(I)cc2)C(=O)N2CCC[C@H]2C(=O)N[C@H](Cc2ccc(-c3ccccc3)cc2)C(=O)O)C[C@@H]2CCCC[C@@H]21)N(C)C(=O)[C@@H](CCCNC(=N)N)NC(=O)[C@@H]1CCCN1C(=O)[C@H](CCCCNC(=N)N)NC(=O)[C@H](CCC(N)=O)NC(=O)[C@@H](CCCNC(=N)N)NC(=O)[C@H](CCCCNC(=N)N)NC(=O)COCCOCCNC(=O)COCCOCCNC(=O)CC[C@H](NC(=O)CCCCCCCCCCCCCCCCC(=O)O)C(=O)O
B2: apelin polypeptide SEQ ID NO: 267 (peptide)
peptide: Tridecanoyl-[γGlu][AEEA][AEEA]Q[dR]P[NMeR][Cha]SHKG[Oic][Nle]P[Phe(4-Cl)]-OH
SMILES: CCCCCCCCCCCCC(=O)N[C@@H](CCC(=O)NCCOCCOCC(=O)NCCOCCOCC(=O)N[C@@H](CCC(N)=O)C(=O)N[C@H](CCCNC(=N)N)C(=O)N1CCC[C@H]1C(=O)N(C)[C@@H](CCCNC(=N)N)C(=O)N[C@@H](CC1CCCCC1)C(=O)N[C@@H](CO)C(=O)N[C@@H](Cc1c[nH]cn1)C(=O)N[C@@H](CCCCN)C(=O)NCC(=O)N1[C@H](C(=O)N[C@@H](CCCC)C(=O)N2CCC[C@H]2C(=O)N[C@@H](Cc2ccc(Cl)cc2)C(=O)O)C[C@@H]2CCCC[C@@H]21)C(=O)O
B3: apelin polypeptide SEQ ID NO: 270 (peptide)
peptide: Tridecanoyl-[γGlu][AEEA][AEEA][dQ][hArg]P[dR][Cha]SHKG[Oic][Nle][Aib][Phe(4-Cl)]-OH
SMILES: CCCCCCCCCCCCC(=O)N[C@@H](CCC(=O)NCCOCCOCC(=O)NCCOCCOCC(=O)N[C@H](CCC(N)=O)C(=O)N[C@@H](CCCCNC(=N)N)C(=O)N1CCC[C@H]1C(=O)N[C@H](CCCNC(=N)N)C(=O)N[C@@H](CC1CCCCC1)C(=O)N[C@@H](CO)C(=O)N[C@@H](Cc1c[nH]cn1)C(=O)N[C@@H](CCCCN)C(=O)NCC(=O)N1[C@H](C(=O)N[C@@H](CCCC)C(=O)NC(C)(C)C(=O)N[C@@H](Cc2ccc(Cl)cc2)C(=O)O)C[C@@H]2CCCC[C@@H]21)C(=O)O
B4: apelin polypeptide SEQ ID NO: 265 (peptide)
peptide: Tridecanoyl-[γGlu][AEEA][AEEA][dQ][hArg]P[dR][Cha]SHKG[Oic][Nle]P[dPhe(4-Cl)]-OH
SMILES: CCCCCCCCCCCCC(=O)N[C@@H](CCC(=O)NCCOCCOCC(=O)NCCOCCOCC(=O)N[C@H](CCC(N)=O)C(=O)N[C@@H](CCCCNC(=N)N)C(=O)N1CCC[C@H]1C(=O)N[C@H](CCCNC(=N)N)C(=O)N[C@@H](CC1CCCCC1)C(=O)N[C@@H](CO)C(=O)N[C@@H](Cc1c[nH]cn1)C(=O)N[C@@H](CCCCN)C(=O)NCC(=O)N1[C@H](C(=O)N[C@@H](CCCC)C(=O)N2CCC[C@H]2C(=O)N[C@H](Cc2ccc(Cl)cc2)C(=O)O)C[C@@H]2CCCC[C@@H]21)C(=O)O
B5: apelin polypeptide SEQ ID NO: 266 (peptide)
peptide: Tridecanoyl-[γGlu][AEEA][AEEA]Q[dR]P[dR][Cha]SHKG[Oic][Nle]P[dPhe(4-Cl)]-OH
SMILES: CCCCCCCCCCCCC(=O)N[C@@H](CCC(=O)NCCOCCOCC(=O)NCCOCCOCC(=O)N[C@@H](CCC(N)=O)C(=O)N[C@H](CCCNC(=N)N)C(=O)N1CCC[C@H]1C(=O)N[C@H](CCCNC(=N)N)C(=O)N[C@@H](CC1CCCCC1)C(=O)N[C@@H](CO)C(=O)N[C@@H](Cc1c[nH]cn1)C(=O)N[C@@H](CCCCN)C(=O)NCC(=O)N1[C@H](C(=O)N[C@@H](CCCC)C(=O)N2CCC[C@H]2C(=O)N[C@H](Cc2ccc(Cl)cc2)C(=O)O)C[C@@H]2CCCC[C@@H]21)C(=O)O
B6: apelin polypeptide SEQ ID NO: 260 (peptide)
peptide: {C18 diacid}-[γGlu][AEEA][AEEA][Orn]F[hArg][hArg]QRP[hArg][NMeL]SHKG[Oic][Nle][2Nal]-OH
SMILES: CCCC[C@H](NC(=O)[C@@H]1C[C@@H]2CCCC[C@@H]2N1C(=O)CNC(=O)[C@H](CCCCN)NC(=O)[C@H](Cc1c[nH]cn1)NC(=O)[C@H](CO)NC(=O)[C@H](CC(C)C)N(C)C(=O)[C@H](CCCCNC(=N)N)NC(=O)[C@@H]1CCCN1C(=O)[C@H](CCCNC(=N)N)NC(=O)[C@H](CCC(N)=O)NC(=O)[C@H](CCCCNC(=N)N)NC(=O)[C@H](CCCCNC(=N)N)NC(=O)[C@H](Cc1ccccc1)NC(=O)[C@H](CCCN)NC(=O)COCCOCCNC(=O)COCCOCCNC(=O)CC[C@H](NC(=O)CCCCCCCCCCCCCCCCC(=O)O)C(=O)O)C(=O)N[C@@H](Cc1ccc2ccccc2c1)C(=O)O
B7: apelin polypeptide SEQ ID NO: 263 (peptide)
peptide: Heptadecanoyl-[γGlu][AEEA][AEEA][hArg][dR]Q[hArg]P[dR][NMeL]SHKG[Oic][Phe(4-I)]P[dBip]-OH
SMILES: CCCCCCCCCCCCCCCCC(=O)N[C@@H](CCC(=O)NCCOCCOCC(=O)NCCOCCOCC(=O)N[C@@H](CCCCNC(=N)N)C(=O)N[C@H](CCCNC(=N)N)C(=O)N[C@@H](CCC(N)=O)C(=O)N[C@@H](CCCCNC(=N)N)C(=O)N1CCC[C@H]1C(=O)N[C@H](CCCNC(=N)N)C(=O)N(C)[C@@H](CC(C)C)C(=O)N[C@@H](CO)C(=O)N[C@@H](Cc1c[nH]cn1)C(=O)N[C@@H](CCCCN)C(=O)NCC(=O)N1[C@H](C(=O)N[C@@H](Cc2ccc(I)cc2)C(=O)N2CCC[C@H]2C(=O)N[C@H](Cc2ccc(-c3ccccc3)cc2)C(=O)O)C[C@@H]2CCCC[C@@H]21)C(=O)O
B8: apelin polypeptide SEQ ID NO: 269 (peptide)
peptide: Tridecanoyl-[γGlu][AEEA][AEEA][dQ][hArg]P[dR][Cha]SHKG[Oic][Nle]P[dTic]-OH
SMILES: CCCCCCCCCCCCC(=O)N[C@@H](CCC(=O)NCCOCCOCC(=O)NCCOCCOCC(=O)N[C@H](CCC(N)=O)C(=O)N[C@@H](CCCCNC(=N)N)C(=O)N1CCC[C@H]1C(=O)N[C@H](CCCNC(=N)N)C(=O)N[C@@H](CC1CCCCC1)C(=O)N[C@@H](CO)C(=O)N[C@@H](Cc1c[nH]cn1)C(=O)N[C@@H](CCCCN)C(=O)NCC(=O)N1[C@H](C(=O)N[C@@H](CCCC)C(=O)N2CCC[C@H]2C(=O)N2Cc3ccccc3C[C@@H]2C(=O)O)C[C@@H]2CCCC[C@@H]21)C(=O)O
B9: apelin polypeptide SEQ ID NO: 261 (peptide)
peptide: Tridecanoyl-[γGlu][AEEA][AEEA][hArg][dR]Q[hArg]P[dR][NMeL]SHKG[Oic][Phe(4-I)]P[dBip]-OH
SMILES: CCCCCCCCCCCCC(=O)N[C@@H](CCC(=O)NCCOCCOCC(=O)NCCOCCOCC(=O)N[C@@H](CCCCNC(=N)N)C(=O)N[C@H](CCCNC(=N)N)C(=O)N[C@@H](CCC(N)=O)C(=O)N[C@@H](CCCCNC(=N)N)C(=O)N1CCC[C@H]1C(=O)N[C@H](CCCNC(=N)N)C(=O)N(C)[C@@H](CC(C)C)C(=O)N[C@@H](CO)C(=O)N[C@@H](Cc1c[nH]cn1)C(=O)N[C@@H](CCCCN)C(=O)NCC(=O)N1[C@H](C(=O)N[C@@H](Cc2ccc(I)cc2)C(=O)N2CCC[C@H]2C(=O)N[C@H](Cc2ccc(-c3ccccc3)cc2)C(=O)O)C[C@@H]2CCCC[C@@H]21)C(=O)O
B10: apelin polypeptide SEQ ID NO: 262 (peptide)
peptide: Pentadecanoyl-[γGlu][AEEA][AEEA][hArg][dR]Q[hArg]P[dR][NMeL]SHKG[Oic][Phe(4-I)]P[dBip]-OH
SMILES: CCCCCCCCCCCCCCC(=O)N[C@@H](CCC(=O)NCCOCCOCC(=O)NCCOCCOCC(=O)N[C@@H](CCCCNC(=N)N)C(=O)N[C@H](CCCNC(=N)N)C(=O)N[C@@H](CCC(N)=O)C(=O)N[C@@H](CCCCNC(=N)N)C(=O)N1CCC[C@H]1C(=O)N[C@H](CCCNC(=N)N)C(=O)N(C)[C@@H](CC(C)C)C(=O)N[C@@H](CO)C(=O)N[C@@H](Cc1c[nH]cn1)C(=O)N[C@@H](CCCCN)C(=O)NCC(=O)N1[C@H](C(=O)N[C@@H](Cc2ccc(I)cc2)C(=O)N2CCC[C@H]2C(=O)N[C@H](Cc2ccc(-c3ccccc3)cc2)C(=O)O)C[C@@H]2CCCC[C@@H]21)C(=O)O

Molecular target: T1, rat APJ receptor
Assay: cell-based or functional assay

EC50 Rat APJ Receptor | Binder
193 nM | B1
17.6 nM | B2
1.49 nM | B3
14.5 nM | B4
33.2 nM | B5
75 nM | B6
5.91 nM | B7
0.706 nM | Ac-[hArg][hArg]Q[dR]P[dR][NMeL]SHKG[Oic][Phe(4-I)]P[dBip]-OH [apelin polypeptide SEQ ID NO: 20]
52.3 nM | B8
9.38 nM | B9
6.71 nM | B10

Molecular target: T2, human APJ receptor
Assay: cell-based or functional assay

EC50 Human APJ Receptor | Binder
145 nM | B1
0.753 nM | B2
1.76 nM | B3
1.2 nM | B4
5.81 nM | B5
48.5 nM | B6
3.99 nM | B7
0.189 nM | Ac-[hArg][hArg]Q[dR]P[dR][NMeL]SHKG[Oic][Phe(4-I)]P[dBip]-OH [apelin polypeptide SEQ ID NO: 20]
73 nM | B8
4.74 nM | B9
4.42 nM | B10
